The record followed here is patent publication US20090075340A1 (Novo Nordisk, published 2009).

For the test, the target named is KIR2DL1 expressed on YTS-2DL1 NK cells (human, UniProt P43626 22-348). Put plainly: cell-based or functional assay.
Chain of KIR2DL1 expressed on YTS-2DL1 NK cells (P43626 other isoform, or with tags, fused parts or gaps limits assumed): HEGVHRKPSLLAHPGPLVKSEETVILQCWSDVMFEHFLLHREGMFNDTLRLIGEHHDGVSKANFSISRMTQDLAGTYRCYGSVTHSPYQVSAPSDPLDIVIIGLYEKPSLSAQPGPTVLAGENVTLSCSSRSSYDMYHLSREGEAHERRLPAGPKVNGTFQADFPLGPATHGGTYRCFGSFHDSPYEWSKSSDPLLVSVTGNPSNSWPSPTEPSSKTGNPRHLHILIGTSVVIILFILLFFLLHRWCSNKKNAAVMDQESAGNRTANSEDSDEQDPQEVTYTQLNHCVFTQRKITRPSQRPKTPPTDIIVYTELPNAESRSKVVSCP

B1: murine IgG1 monoclonal antibody 1-26F117-A3 (antibody, V domains shown)
VH: EVQLQQSGPELVKPGASVKISCKASDYSFTGYFMNWVMQSQEKSLEWIGRINPFNGDAFYNQKFKGKATLTVDKSSNTAHMELRSLTSEDSAVYYCARLDYRGYFFDYWGQGTTLTVSS
VL: DIVMTQSQKFMSTTVGDRVSITCKASQSVGSAVGWYQQKPGQSPKLLIYSASTRYTGVPDRFTGSGSGTDFTLTITNMQSDDLADYFCHQYSRYPLSFGSGTKLEMKR
As to B1, the “killing of LCL 721.221-Cw4 cells by YTS-2DL1, fold over killing in the absence of mAb's” value was found to be 3.7 fold.

B2: murine IgG1 monoclonal antibody 1-26F117-A4 (antibody, V domains shown)
VH: QVQLKESGPGLVAPSQSLSITCTVSGFSLTDYGVSWVRQPPGKGLEWLGLIWGDGRTNYHSALISRLSISKDNSKSQVFLKLNSLQIDDTATYYCARRGAMDYWGQGTSVTVSS
VL: B1 VL
Turning to B2, the “killing of LCL 721.221-Cw4 cells by YTS-2DL1, fold over killing in the absence of mAb's” value was around 2 fold.
